The assay addresses C-PfCSP (recombinant PfCSP C terminus, linker and αTSR subdomains) (Plasmodium falciparum NF54, UniProt P19597). Briefly: ELISA.

B1: 1710 IgG (antibody, V domains shown)
VH: EVQLQESGGGLVKPGGSLRLSCAASGFTFSSYSMNWVRQAPGKGLEWVSSITSSSSYIYYADSVKGRFTISRDNAKNSLYLQMNSLRAEDTAVYYCARDPGIAAADNHWFDPWGQGTLVTVSS
VL: not shown
For the molecule B1, the binding result is “binds”.

The record behind these values is paper PMC5748854 (The Journal of Experimental Medicine, 2018).
